# Experimental data reported in patent publication US20140127225A1 (NEOTOPE BIOSCIENCES, published 2014).
# B1: chimeric 6G1 (antibody, V domains shown)
# VH: QIQLVQSGPELKKPGETVKISCKASGYTFTNYGMNWVKQAPGKDLKWMGWINTYTGEPRYADEFKGRFAFSLETSASTAYLQINNLKNEDMATYFCAKGGYPHYYSMDYWGQGTSVTVSS
# VL: DIQMTQSTSSLSASLGDRVTISCRASQDINNYLNWYQQKPDGTIKLLIYYTSKLHSGVPSRFSGSGSGRDYSLTISNLEQEDIATYFCQQGNTLPRTFGGGTKLEIKR
# notes: also called chi-6G1
# B2: mouse monoclonal antibody 6G1 (antibody, V domains shown)
# VH: QIQLVQSGPELKKPGETVKISCKASGYTFTNYGMNWVKQAPGKDLKWMGWINTYTGEPRYADEFKGRFAFSLETSASTAYLQINNLKNEDMATYFCAKGGYPHYYSMDYWGQGTSVTVSS
# VL: DIQMTQSTSSLSASLGDRVTISCRASQDINNYLNWYQQKPDGTIKLLIYYTSKLHSGVPSRFSGSGSGRDYSLTISNLEQEDIATYFCQQGNTLPRTFGGGTKLEIKR
# notes: Mouse hybridoma antibody; also called m6G1
# B3: mouse monoclonal antibody 2H8r (antibody, V domains shown)
# VH: QIQLVQSGPELKKPGETVKISCKASGYTFTNYGMNWVKQAPGKGLKWMGWINTYTGEPTYADDFKGRFAFSLETSASTAYLQINNLKNEDMATYFCAKGGYPHYYSMDYWGQGTSVTVSS
# VL: DIQMTQTTSSLSASLGDRVTISCRASQDISNYLNWYQQKPDGTVKLLIYYTSRLHSGVPSRFSGSGSGTDYSLTISNLEQEDIATYFCQQGKTLPRTFGGGTKLEIKR
# notes: also called m2H8r
# B4: humanized 6G1 version H3L3 (antibody, V domains shown)
# VH: QVQLVQSGSELKKPGASVKVSCKASGYTFTNYGMNWVKQAPGQDLKWMGWINTYTGEPRYADEFKGRFVFSLDTSVSTAYLQISSLKAEDTATYYCARGGYPHYYSMDYWGQGTTVTVSS
# VL: DIQMTQSPSSLSASVGDRVTITCRASQDINNYLNWYQQKPGKTPKLLIYYTSKLHSGVPSRFSGSGSGRDYILTISSLQPEDIATYYCQQGNTLPRTFGGGTKVEIKR
# notes: Only variable regions are tied to it; also called Hu6G1 H3L3
# B5: humanized 6G1 version H3L5 (antibody, V domains shown)
# VH: QVQLVQSGSELKKPGASVKVSCKASGYTFTNYGMNWVKQAPGQDLKWMGWINTYTGEPRYADEFKGRFVFSLDTSVSTAYLQISSLKAEDTATYYCARGGYPHYYSMDYWGQGTTVTVSS
# VL: DIQMTQSPSSLSASVGDRVTITCRASQDINNYLNWYQQKPGKTPKLLIYYTSKLHSGVPSRFSGSGSGRDYILTISSLQPEDIATYFCQQGNTLPRTFGGGTKVEIKR
# notes: H3 = 6G1 Hu v3 heavy, L5 = 6G1 Hu v5 light
# B6: humanized 6G1 version H1L2 (antibody, V domains shown)
# VH: QVQLVQSGSELKKPGASVKVSCKASGYTFTNYGMNWVRQAPGQGLKWMGWINTYTGEPRYADEFKGRFVFSLDTSVSTAYLQISSLKAEDTATYYCARGGYPHYYSMDYWGQGTTVTVSS
# VL: DIQMTQSPSSLSASVGDRVTITCRASQDINNYLNWYQQKPGKTPKLLIYYTSKLHSGVPSRFSGSGSGRDYIFTISSLQPEDIATYYCQQGNTLPRTFGGGTKVEIKR
# notes: H1 = 6G1 Hu v1 heavy, L2 = 6G1 Hu v2 light
# B7: huH1L5 (antibody, V domains shown)
# VH: QVQLVQSGSELKKPGASVKVSCKASGYTFTNYGMNWVRQAPGQGLKWMGWINTYTGEPRYADEFKGRFVFSLDTSVSTAYLQISSLKAEDTATYYCARGGYPHYYSMDYWGQGTTVTVSS
# VL: DIQMTQSPSSLSASVGDRVTITCRASQDINNYLNWYQQKPGKTPKLLIYYTSKLHSGVPSRFSGSGSGRDYILTISSLQPEDIATYFCQQGNTLPRTFGGGTKVEIKR
# notes: also called humanized 6G1 version H1L5
# B8: humanized 5D2 version H1L1 (antibody, V domains shown)
# VH: EVQLQQSGAEVKKPGASVKVSCKASGYTFTDNYYMNWVRQAPGQSLEWMGHIYPNNGVTSYNQKFRGRVTLTRDKSINTAYMELSSLTSEDTALYYCARNKLLSLYWYFDVWGQGTLVTVSS
# VL: DIQMTQSPSSLSASVGDRVTITCRASVDIYNRLAWFQQKPGKAPKLLISGATSLATGVPSRFSGSGSGKDYTLTISSLQPEDFATYYCQQYWSTPWTFGGGTKLEIKR
# notes: also called 5D2 H1L1
# B9: humanized 5D2 version H2L1 (antibody, V domains shown)
# VH: EVQLQQSGAEVKKPGASVKVSCKASGYTFTDNYYMNWVRQAPGQSLEWMGHIYPNNGVTSYNQKFRGRVTITRDKSINTAYMELSSLTSEDTAVYYCARNKLLSLYWYFDVWGQGTLVTVSS
# VL: DIQMTQSPSSLSASVGDRVTITCRASVDIYNRLAWFQQKPGKAPKLLISGATSLATGVPSRFSGSGSGKDYTLTISSLQPEDFATYYCQQYWSTPWTFGGGTKLEIKR
# notes: also called 5D2 H2L1
# B10: mouse monoclonal antibody 5D2 (antibody, IgG1, V domains shown)
# VH: EVQLQQSGPELVKPGASVKISCKASGYTFTDNYYMNWVKQSHGKSLEWIGHIYPNNGVTSYNQKFRGKATLTVDKSSNSAYMELRSLTSEDSALYYCARNKLLSLYWYFDVWGTGTSVTVSS
# VL: DIQMTQSSSSFSVFLGDRITITCRASVDIYNRLAWFQQKPGNAPRLLISGATSLATGVPSRFSGSGSGKDYTLSITSLQTEDVTIYYCQQYWSTPWTFGGGTKLEIKR
# notes: also called m5D2
# What was measured:
# [1] = target: T1, human iC3b (purified; Complement Technology #A115) (human, UniProt P01024 23-667); assay: direct ELISA, plate coated with 10 ug/ml iC3b, goat anti-human-HRP, ABTS, OD405
# T1 construct: range 23-667; Bought purified protein; chains held together by disulfide bonds; also called purified human iC3b
# T1 sequence (P01024 23-667 limits assumed, chain 1 of 3): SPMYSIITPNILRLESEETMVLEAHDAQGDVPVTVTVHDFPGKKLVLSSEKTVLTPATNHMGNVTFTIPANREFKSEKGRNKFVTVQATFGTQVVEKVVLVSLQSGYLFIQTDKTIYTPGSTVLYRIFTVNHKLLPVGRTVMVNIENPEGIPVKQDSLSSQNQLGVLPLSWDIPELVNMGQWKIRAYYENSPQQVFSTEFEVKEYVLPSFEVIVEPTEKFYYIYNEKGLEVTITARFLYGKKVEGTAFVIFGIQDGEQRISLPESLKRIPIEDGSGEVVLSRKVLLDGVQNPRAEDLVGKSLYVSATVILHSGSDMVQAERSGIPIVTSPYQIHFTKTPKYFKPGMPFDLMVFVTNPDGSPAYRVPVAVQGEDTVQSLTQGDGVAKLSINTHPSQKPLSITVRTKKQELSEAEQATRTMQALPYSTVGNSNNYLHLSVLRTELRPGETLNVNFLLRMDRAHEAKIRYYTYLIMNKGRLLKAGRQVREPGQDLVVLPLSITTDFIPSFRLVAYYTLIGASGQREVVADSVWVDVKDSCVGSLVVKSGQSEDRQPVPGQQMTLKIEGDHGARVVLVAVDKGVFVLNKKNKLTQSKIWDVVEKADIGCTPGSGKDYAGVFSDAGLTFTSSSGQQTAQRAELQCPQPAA
# T1 sequence (P01024 749-1303 limits assumed, chain 2 of 3): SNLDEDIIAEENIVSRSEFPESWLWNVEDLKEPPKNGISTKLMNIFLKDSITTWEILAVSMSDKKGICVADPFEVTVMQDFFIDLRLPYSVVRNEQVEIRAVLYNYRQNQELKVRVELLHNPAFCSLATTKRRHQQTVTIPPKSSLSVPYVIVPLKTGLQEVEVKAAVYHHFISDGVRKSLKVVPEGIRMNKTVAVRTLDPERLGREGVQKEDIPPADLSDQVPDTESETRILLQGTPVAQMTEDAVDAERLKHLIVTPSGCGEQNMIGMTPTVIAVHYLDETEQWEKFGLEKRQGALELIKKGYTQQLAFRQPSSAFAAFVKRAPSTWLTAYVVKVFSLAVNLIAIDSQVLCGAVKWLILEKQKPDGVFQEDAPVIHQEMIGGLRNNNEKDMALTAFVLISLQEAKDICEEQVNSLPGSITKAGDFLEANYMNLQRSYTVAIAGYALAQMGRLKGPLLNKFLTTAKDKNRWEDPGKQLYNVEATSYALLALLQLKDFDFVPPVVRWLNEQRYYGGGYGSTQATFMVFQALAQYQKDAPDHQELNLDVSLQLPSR
# T1 sequence (P01024 1321-1663 limits assumed, chain 3 of 3): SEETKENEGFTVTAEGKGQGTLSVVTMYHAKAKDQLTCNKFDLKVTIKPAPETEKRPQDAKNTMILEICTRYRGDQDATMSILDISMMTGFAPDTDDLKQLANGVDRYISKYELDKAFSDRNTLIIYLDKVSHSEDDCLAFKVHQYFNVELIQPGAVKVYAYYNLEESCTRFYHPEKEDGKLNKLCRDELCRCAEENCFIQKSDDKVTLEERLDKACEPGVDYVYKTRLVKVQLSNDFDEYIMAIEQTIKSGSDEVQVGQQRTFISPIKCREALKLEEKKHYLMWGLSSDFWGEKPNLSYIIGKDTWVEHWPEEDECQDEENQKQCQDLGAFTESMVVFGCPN
# Method: Costar RIA/EIA (Costar #3590) plate was coated with 100 ul/well of 10 ug/ml iC3b (Complement Technologies) at 4 degree overnight. At day 2, the plate was washed 5 times with washing buffer (TPBS+0.05% Tween 20) and blocked with 100 ul blocking buffer (PBS containing 1.5% BSA) per well for 1 hour at room temperature. Then the plate was washed 5 times with washing buffer and incubated with 100 ul per well of testing antibodies as indicated in the figure. After 1 hour of incubation at room temperature, the plate was washed again for 5 times with washing buffer and incubated with 1:4000 diluted Goat anti human-HRP (Jackson Immunoresearch, Code 109-036-098, lot 99937) in 100 ul blocking buffer per well.
# [2] = target: T1, human iC3b (purified; Complement …); assay: Biacore; reference C3b
# [3] = target: T1, human iC3b (purified; Complement …); assay: Biacore; antibody captured on anti-mouse CM5 chip, four concentrations of antigen
# Method: (§1) A preliminary Biacore assay was done with four concentrations of either iC3b or one of the two potential cross-reactive complement species (e.g., C3b or C3) to assess relative cross-reactivity. Unlike ELISA, a two-fold difference in KD is not sufficient to establish specificity in the Biacore assay. An anti-mouse CM5 chip was prepared following manufacture protocol. Three antibodies (including 6G1) were captured at levels such that Rmax would fall between 25 and 50 RU. Four concentrations of either iC3b or cross-reacting protein were used. Both were from Complement Technologies as described above.
# [4] = target: T1, human iC3b (purified; Complement …); assay: sandwich ELISA; antigen captured by chicken anti-C3; reference C3 or C3b
# Source text: For secondary screening, C3, C3b and iC3b were used for testing cross-reactivity. The plate was coated with chicken anti-C3 antibody (LeeBio #CC3-80A) as the capture antibody. For primary screening, only iC3b was used for antigen capture. For antibody characterization, all C3 proteins (C3 (Complement Technology #A113); C3b (Complement Technology #A114); and iC3b (Complement Technology #A115)) were used for antigen capture. Supernatants from cells, control antibody, mouse anti-human iC3b (the A209 antibody (Quidel)), were used as detecting antibodies, respectively. Goat anti-mouse-HRP (Jackson ImmunoResearch #115-035-164) was used as the secondary Antibody. 1-Step ABTS (Thermo #37615) was used as the substrate.
# The sandwich ELISA was performed for the two mice in Example 3. First, cell supernatants were only tested for binding to iC3b. C3, C3b, and iC3b were used in the secondary screening for testing cross-reactivity.
# [5] = target: T1, human iC3b (purified; Complement …); assay: Biacore; reference C3
# Method: as §1
# [6] = target: T2, human C3 (purified; Complement Technology #A113) (human, UniProt P01024 23-667; P01024 672-1663); assay: Biacore; antibody captured on anti-mouse CM5 chip, four concentrations of antigen; Biacore; 6G1 captured on chip, C3 in solution: weak binding, >10x weaker than iC3b
# T2 construct: range 23-667;range 672-1663; Bought purified protein
# T2 sequence (P01024 23-667 limits assumed, form in doubt, chain 1 of 2): as the sequence (P01024 23-667 limits assumed, chain 1 of 3) above
# T2 sequence (P01024 672-1663 limits assumed, form in doubt, chain 2 of 2): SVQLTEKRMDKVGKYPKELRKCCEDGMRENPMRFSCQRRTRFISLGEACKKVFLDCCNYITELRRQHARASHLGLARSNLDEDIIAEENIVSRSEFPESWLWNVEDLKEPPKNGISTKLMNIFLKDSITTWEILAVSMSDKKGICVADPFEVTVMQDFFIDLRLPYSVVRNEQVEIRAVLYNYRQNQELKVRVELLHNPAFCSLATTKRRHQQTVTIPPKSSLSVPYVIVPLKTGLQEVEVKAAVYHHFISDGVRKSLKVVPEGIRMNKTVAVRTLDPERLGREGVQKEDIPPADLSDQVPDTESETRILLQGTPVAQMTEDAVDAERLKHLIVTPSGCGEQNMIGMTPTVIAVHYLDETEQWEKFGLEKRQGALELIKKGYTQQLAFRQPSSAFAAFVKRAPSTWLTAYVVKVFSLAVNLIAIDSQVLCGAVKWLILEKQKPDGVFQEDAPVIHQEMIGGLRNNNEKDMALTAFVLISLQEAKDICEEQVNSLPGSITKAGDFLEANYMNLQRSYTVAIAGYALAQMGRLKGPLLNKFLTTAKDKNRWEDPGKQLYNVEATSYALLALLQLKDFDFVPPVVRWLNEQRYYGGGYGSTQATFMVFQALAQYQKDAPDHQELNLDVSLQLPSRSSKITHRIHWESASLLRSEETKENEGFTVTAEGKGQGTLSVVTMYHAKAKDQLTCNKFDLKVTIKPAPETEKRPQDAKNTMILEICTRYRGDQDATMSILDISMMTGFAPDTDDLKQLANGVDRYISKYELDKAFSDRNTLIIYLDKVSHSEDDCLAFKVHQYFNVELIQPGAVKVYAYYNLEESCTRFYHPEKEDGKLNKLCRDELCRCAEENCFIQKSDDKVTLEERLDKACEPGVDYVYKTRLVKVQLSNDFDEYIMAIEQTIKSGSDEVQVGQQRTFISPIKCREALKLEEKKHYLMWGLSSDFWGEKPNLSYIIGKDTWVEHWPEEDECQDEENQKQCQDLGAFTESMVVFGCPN
# [7] = target: T2, human C3 (purified; Complement …); assay: Biacore; antibody captured on anti-mouse CM5 chip, four concentrations of antigen; Biacore; 6G1 captured on chip, C3 in solution: weak binding
# [8] = target: T1, human iC3b (purified; Complement …); assay: sandwich ELISA; reference C3b
# [9] = target: T1, human iC3b (purified; Complement …); assay: assay not described
binder,measurement,setting,value
B1,EC50 (read off the curve),[1],~0.08 µg/mL
B2,fold higher affinity constant for iC3b than C3b,[2],≥ 10 fold
same,Kd,[3],43.3 nM
same,kon,[3],98000 M⁻¹ s⁻¹
same,fold specificity for iC3b vs. C3 or C3b,[4],> 2 fold
same,"fold difference in KD, iC3b relative to C3",[5],> 10 fold
same,Kd,[6],2100 nM
same,koff,[7],0.028 s⁻¹
same,kon,[7],13000 M⁻¹ s⁻¹
B3,fold higher affinity constant for iC3b than C3b,[2],≥ 10 fold
same,fold higher affinity constant for iC3b than C3b,[8],≥ 2 fold
B4,EC50 (read off the curve),[1],~0.08 µg/mL
B5,binding result,[1],binds
B6,EC50 (read off the curve),[1],~0.1 µg/mL
B7,binding result,[1],binds
B8,binding result,[9],binds
B9,binding result,[9],binds
B10,fold higher affinity constant for iC3b than C3b,[2],≥ 10 fold
same,fold specificity for iC3b vs. C3 or C3b,[4],> 2 fold
